The subject of this data set is Argyrin A.

As to “purified human erythrocyte derived 20S proteasome”, the “activity of the caspase-, chymotrypsin- and trypsin-like proteasome activities (fluorogenic peptide substrates)” value was “incubation of purified human 20S proteasome with Argyrin A led to a dose dependent inhibition of the caspase, trypsin and chymotrypsin like proteasome activities”.

These data come from patent US20100144822.
